B1: IgG1-CD27-A-P329R-E345R (antibody)
heavy: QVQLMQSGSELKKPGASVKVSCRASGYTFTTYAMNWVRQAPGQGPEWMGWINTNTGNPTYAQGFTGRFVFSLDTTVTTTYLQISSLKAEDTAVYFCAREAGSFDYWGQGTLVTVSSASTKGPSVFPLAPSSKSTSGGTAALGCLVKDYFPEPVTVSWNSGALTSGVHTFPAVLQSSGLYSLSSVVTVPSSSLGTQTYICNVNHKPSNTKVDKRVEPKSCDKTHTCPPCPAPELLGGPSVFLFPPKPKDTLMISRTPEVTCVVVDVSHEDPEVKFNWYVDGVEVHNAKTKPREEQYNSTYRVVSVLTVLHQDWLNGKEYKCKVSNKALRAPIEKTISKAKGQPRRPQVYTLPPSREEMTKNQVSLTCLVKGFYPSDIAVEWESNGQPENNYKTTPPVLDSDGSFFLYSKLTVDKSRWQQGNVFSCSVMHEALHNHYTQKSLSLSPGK
light: QSALTQPASVSGSPGQSITISCTGTSSDVYYYNYVSWYQQHPGRAPKLVIYDVSNRPSGVSNRFSGSKSGNTASLTISGLRAEDEADYYCSSYTVNRVWVFGGGTKLTVLGQPKAAPSVTLFPPSSEELQANKATLVCLISDFYPGAVTVAWKADSSPVKAGVETTTPSKQSNNKYAASSYLSLTPEQWKSHRSYSCQVTHEGSTVEKTVAPTECS
notes: also called IgG1-CD27-A-E345R-P329R
B2: IgG1-b12-FEAR (antibody, V domains shown)
VH: QVQLVQSGAEVKKPGASVKVSCQASGYRFSNFVIHWVRQAPGQRFEWMGWINPYNGNKEFSAKFQDRVTFTADTSANTAYMELRSLRSADTAVYYCARVGPYSWDDSPQDNYYMDVWGKGTTVIVSS
VL: EIVLTQSPGTLSLSPGERATFSCRSSHSIRSRRVAWYQHKPGQAPRLVIHGVSNRASGISDRFSGSGSGTDFTLTITRVEPEDFALYYCQVYGASSYTFGQGTKLERK
notes: also called ctrl; anti-HIV-gp120 antibody IgG1-b12-FEAR

Tests used:
[1] = target: T1, recombinant His-tagged human FcγRIIb (Sino Biological, Cat #10259-H27H-B) (human, UniProt P31994 43-217); experiment: SPR (Biacore): His-tagged FcγRIIb captured on an anti-His chip, antibody injected
T1 construct: Bought protein; not shown: His tag
T1 sequence (looked up): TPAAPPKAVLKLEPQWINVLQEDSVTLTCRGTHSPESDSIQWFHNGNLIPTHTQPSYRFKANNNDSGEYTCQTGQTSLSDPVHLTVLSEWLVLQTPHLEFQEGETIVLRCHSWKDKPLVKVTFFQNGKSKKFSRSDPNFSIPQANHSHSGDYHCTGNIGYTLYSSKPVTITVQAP

[2] = target: T2, recombinant His-tagged human FcγRIIa 167-His (Sino Biological, Cat #10374-H27H) (human, UniProt P12318 34-218); experiment: SPR (Biacore): His-tagged FcγRIIa-H captured on an anti-His chip, antibody injected
T2 construct: Bought protein; also called FcγRIIa-H; FcγRIIa (167-His [H]); not shown: His tag
T2 sequence (looked up): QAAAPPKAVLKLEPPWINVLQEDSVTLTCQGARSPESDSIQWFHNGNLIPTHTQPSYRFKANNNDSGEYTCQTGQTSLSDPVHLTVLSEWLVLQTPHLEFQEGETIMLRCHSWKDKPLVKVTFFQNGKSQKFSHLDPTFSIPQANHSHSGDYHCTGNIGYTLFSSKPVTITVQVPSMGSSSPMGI

[3] = target: T3, recombinant His-tagged human FcγRIIa 167-Arg (Sino Biological, Cat #10374-H27H1-B) (human, UniProt P12318 34-218); experiment: SPR (Biacore): His-tagged FcγRIIa-R captured on an anti-His chip, antibody injected
T3 construct: Bought protein; also called FcγRIIa-R; FcγRIIa (167-Arg [R]); not shown: His tag
T3 sequence (looked up): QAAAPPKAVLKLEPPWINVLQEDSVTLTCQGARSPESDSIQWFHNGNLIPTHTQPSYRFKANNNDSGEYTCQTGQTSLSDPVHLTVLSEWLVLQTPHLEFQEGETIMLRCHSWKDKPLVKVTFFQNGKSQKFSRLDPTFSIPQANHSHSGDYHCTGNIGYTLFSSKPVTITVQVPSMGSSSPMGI

[4] = target: T4, recombinant His-tagged human FcγRIIIa 176-Phe (Sino Biological, Cat #10389-H27H-B) (human, UniProt P08637 17-208); experiment: SPR (Biacore): His-tagged FcγRIIIa-F captured on an anti-His chip, antibody injected
T4 construct: Bought protein; also called FcγRIIIa-F; FcγRIIIa (176-Phe [F]); not shown: His tag
T4 sequence (P08637 17-208 limits assumed): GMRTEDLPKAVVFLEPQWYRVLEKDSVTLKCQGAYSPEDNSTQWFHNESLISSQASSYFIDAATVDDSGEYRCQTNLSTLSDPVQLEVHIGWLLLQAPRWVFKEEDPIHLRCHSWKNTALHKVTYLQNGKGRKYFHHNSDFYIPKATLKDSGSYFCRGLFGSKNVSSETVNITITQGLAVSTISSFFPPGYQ

[5] = target: T5, recombinant His-tagged human FcγRIIIa 176-Val (Sino Biological, Cat #10389-H27H1-B) (human, UniProt P08637 17-208); experiment: SPR (Biacore): His-tagged FcγRIIIa-V captured on an anti-His chip, antibody injected
T5 construct: Bought protein; also called FcγRIIIa-V; FcγRIIIa (176-Val [V]); not shown: His tag
T5 sequence (P08637 17-208 F176V limits assumed): as the sequence (P08637 17-208 limits assumed) above, with F160V counted along it

[6] = target: T6, human CD27 expressed on cells (T cells, transfected HEK293F cells, Daudi cells, NFκB-luc2/CD27 Jurkat … (human, UniProt P26842 20-240)); experiment: flow cytometry on CD4+ T cells in human PBMC, FITC-conjugated goat anti-human IgG F(ab')2, median FITC
T6 construct: also called TNFRSF7
T6 sequence: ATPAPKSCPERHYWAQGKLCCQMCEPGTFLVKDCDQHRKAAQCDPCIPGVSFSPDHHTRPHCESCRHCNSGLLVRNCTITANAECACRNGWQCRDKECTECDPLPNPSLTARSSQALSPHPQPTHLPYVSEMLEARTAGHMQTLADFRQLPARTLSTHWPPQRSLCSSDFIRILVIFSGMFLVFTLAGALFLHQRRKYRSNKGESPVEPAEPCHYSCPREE
Procedure: (§1) Binding of IgG1-CD27-A-P329R-E345R to CD27 on human healthy donor T cells was characterized in more detail using flow cytometry. Anti-HIV gp120 antibody variant IgG1-b12-P329R-E345R was used as non-binding control antibody (ctrl). Human PBMCs were isolated from buffy coats obtained from human healthy donors. PBMCs (1×10⁵ cells/well) in FACS buffer were added to polystyrene 96-well round-bottom plates (Greiner bio-one, Cat #650101) and pelleted by centrifugation at 300×g for 3 min at 4° C. The cells were resuspended in 50 μL/well serial antibody dilutions in FACS buffer (range 0.0015 to 10 μg/mL in 3-fold dilution steps) and incubated for 30 min at 4° C. Cells were pelleted, washed twice with FACS buffer and incubated in 50 μL/well with FITC-conjugated secondary antibody (FITC AffiniPure F(ab′)₂ fragment goat anti-human IgG, F(ab′)₂ fragment specific, Jackson ImmunoResearch, Cat #109-096-097, diluted 1:100) for 30 min at 4° C. in the dark. […] The samples were measured by flow cytometry on an LSRFortessa (BD) flow cytometer and analyzed using FlowJo software. Binding curves were analyzed using non-linear regression (sigmoidal dose-response with variable slope) using GraphPad Prism 8 software.

[7] = target: T6, human CD27 expressed on cells (T cells, …); experiment: flow cytometry on CD8+ T cells in human PBMC, FITC-conjugated goat anti-human IgG F(ab')2, median FITC
Procedure: as §1

[8] = target: T7, recombinant His-tagged human FcγRIa (Sino Biological, Cat #10256-H08S-B) (human, UniProt P12314 16-288); experiment: SPR (Biacore): His-tagged FcγRIa captured on an anti-His chip, antibody injected; resonance units against antibody concentration
T7 construct: Bought protein; not shown: His tag
T7 sequence (P12314 16-288 limits assumed, stated change not applied): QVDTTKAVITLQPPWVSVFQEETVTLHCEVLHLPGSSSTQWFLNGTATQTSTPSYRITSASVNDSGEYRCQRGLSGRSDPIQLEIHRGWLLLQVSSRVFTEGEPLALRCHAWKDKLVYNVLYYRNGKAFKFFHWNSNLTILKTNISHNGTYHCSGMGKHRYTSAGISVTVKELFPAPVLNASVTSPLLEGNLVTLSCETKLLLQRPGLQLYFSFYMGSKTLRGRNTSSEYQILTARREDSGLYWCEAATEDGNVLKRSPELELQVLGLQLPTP
Procedure: Binding of IgG1-CD27-A-P329R-E345R to human FcγR variants was analyzed using a Biacore surface plasmon resonance (SPR) system and compared to an anti-HIV gp120 antibody IgG1-b12 (ctrl). Biacore Series S Sensor Chips CM5 (Cytiva, Cat #29104988) were covalently coated with anti-His antibody using amine-coupling and His capture kits (Cytiva, Cat #BR100050 and Cat #29234602) according to the manufacturer's instructions. […] After three cycles of buffer, antibody samples were injected for 36 cycles to generate binding curves using antibody ranges of 0-3,000 nM for FcγRI and 0-10,000 nM for the other FcγRs. Each sample that was analyzed on an FcR-coated surface (Active Surface) was also analyzed on a parallel flow-cell without FcR (Reference Surface), which was used for background correction. Dissociation from the anti-His-coated surface was performed by regeneration of the surface using 10 mM Glycine-HCl pH 1.5 (Cytiva, Cat #BR100354). Sensograms were generated using Biacore Insight Evaluation software (Cytiva) and a four-parameter logistic (4PL) fit was applied to calculate relative binding of IgG1-CD27-A-P329R-E345R against the reference sample (ctrl).

[9] = target: T8, human C1q (from normal human serum) (human, UniProt P02745 23-245; P02746 28-253; P02747 29-245); experiment: flow cytometry: human T cells opsonised with the antibody, 20% normal human serum as source of C1q, FITC-labelled rabbit anti-human C1q
T8 construct: 20% normal human serum was the source of C1q
T8 sequence (P02745 23-245 limits assumed, chain 1 of 3): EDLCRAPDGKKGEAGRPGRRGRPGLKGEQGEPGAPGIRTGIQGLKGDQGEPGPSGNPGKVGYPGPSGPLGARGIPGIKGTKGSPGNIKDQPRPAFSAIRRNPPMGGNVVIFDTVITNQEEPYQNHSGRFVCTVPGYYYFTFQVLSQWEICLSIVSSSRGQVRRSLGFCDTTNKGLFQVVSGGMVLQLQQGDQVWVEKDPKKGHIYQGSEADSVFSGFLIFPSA
T8 sequence (P02746 28-253 limits assumed, chain 2 of 3): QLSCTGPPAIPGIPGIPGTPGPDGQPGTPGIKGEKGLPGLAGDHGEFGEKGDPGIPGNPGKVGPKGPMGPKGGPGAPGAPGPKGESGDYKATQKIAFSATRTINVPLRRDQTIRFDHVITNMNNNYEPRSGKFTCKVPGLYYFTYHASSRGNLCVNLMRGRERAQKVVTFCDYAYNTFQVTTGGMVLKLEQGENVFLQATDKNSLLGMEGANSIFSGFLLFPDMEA
T8 sequence (P02747 29-245 limits assumed, chain 3 of 3): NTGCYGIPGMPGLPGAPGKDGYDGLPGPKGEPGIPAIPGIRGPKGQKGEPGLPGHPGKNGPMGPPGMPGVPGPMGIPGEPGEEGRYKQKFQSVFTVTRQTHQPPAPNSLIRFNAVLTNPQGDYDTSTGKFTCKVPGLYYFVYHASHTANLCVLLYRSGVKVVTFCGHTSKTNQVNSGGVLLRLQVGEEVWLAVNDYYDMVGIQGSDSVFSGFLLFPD

[10] = target: T6, human CD27 expressed on cells (T cells, …); experiment: flow cytometry on T cells in human PBMC, PE-labelled goat anti-human IgG, median MFI PE
[11] = target: T9, cynomolgus monkey CD27 expressed on cells (cynomolgus monkey T cells, transfected HEK293F cells) (cynomolgus monkey, UniProt P26842 20-260 (human entry)); experiment: flow cytometry on T cells in cynomolgus monkey PBMC, PE-labelled goat anti-human IgG, median MFI PE
T9 construct: also called cyno CD27
T9 chain: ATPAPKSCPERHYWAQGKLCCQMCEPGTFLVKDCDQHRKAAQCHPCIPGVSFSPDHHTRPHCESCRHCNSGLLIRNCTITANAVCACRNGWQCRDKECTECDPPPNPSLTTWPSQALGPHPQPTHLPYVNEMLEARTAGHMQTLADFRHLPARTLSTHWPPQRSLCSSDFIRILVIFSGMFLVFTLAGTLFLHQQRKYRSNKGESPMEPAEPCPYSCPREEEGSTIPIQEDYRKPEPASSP

| Binder | binding result [1] | binding result [2] | binding result [3] | binding result [4] | binding result [5] | EC50 (read off the curve) [6] [µg/mL] | EC50 (read off the curve) [7] [µg/mL] | binding result [8] | binding result [9] | binding result [10] | binding result [11] |
| --- | --- | --- | --- | --- | --- | --- | --- | --- | --- | --- | --- |
| B1 | no binding (tested: 10,000 nM) | no binding (tested: 10,000 nM) | no binding (tested: 10,000 nM) | no binding (tested: 10,000 nM) | no binding (tested: 10,000 nM) | ~0.03 | ~0.03 | binds | no binding (tested: 15 µg/mL) |  |  |
| B2 |  |  |  |  |  |  |  |  |  | no binding (tested: 10 µg/mL) | no binding (tested: 10 µg/mL) |

— patent publication US20250325643A1 (Genmab, published 2025)
